Molecular target: EVA-4 (UniProt P0C8E9)
Experiment: SPR

EVA-4, sequence (P0C8E9 24-127): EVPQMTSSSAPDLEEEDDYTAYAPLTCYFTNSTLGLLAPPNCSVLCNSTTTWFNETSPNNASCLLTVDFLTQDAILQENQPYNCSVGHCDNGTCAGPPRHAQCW
CCL13, Q99616 17-98 (ligand; biotin on the Avi-tag (Bir-A ligase); other documents disagree on this pair), sequence (Q99616 17-98): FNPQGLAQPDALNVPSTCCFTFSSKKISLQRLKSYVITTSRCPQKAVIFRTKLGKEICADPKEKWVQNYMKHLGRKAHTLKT

Kd: 253 nM
Substance: CCL13, Q99616 17-98 (ligand; biotin on the Avi-tag (Bir-A ligase); other documents disagree on this pair)
